Experimental data: the nanobody polyreactivity screen of Harvey et al. (2022)

assay: yeast display, Sf9 membrane polyspecificity reagent, FACS + sequencing; frameworks hold sequencing errors
Method in brief: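 Synthetic nanobody libraries on Saccharomyces cerevisiae BJ5465 were galactose-induced for 36–48 hours, stained 1 hour at 4 °C with 10% biotinylated, detergent-solubilized Sf9 membrane reagent and enriched on streptavidin microbeads. FACS then separated cells into low and high (top ~1%) gates by anti-HA (expression) and streptavidin (reagent binding) fluorescence. Genes were colony-PCR amplified, MiSeq 2 × 250 sequenced and CDR-length filtered. A clone's polyreactivity label is that of its gate of origin.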

Sequence	polyreactivity (PSR sort gate)
QVQLVESGGGLVQAGGSLRLSCAASGSTFGLYAMGRYRQAPGKERELVAAIRYSDGSTYYADSVKGRFTISRDNAKNTVYLQMNSLKPEDTAVYYCAAEIGTYFHVPTEYDYWGQGTQVTVSS	low polyreactivity
QVQLVESGGGLVQAGGSLRLSCAASGSTFGLYAMGWYRQAPGKERELVAAIRWSGGRTYYADSVKGRFTISRDNAKNTVYLQMNSLKPEDTAVYYCAARSLRSKNDYWGQGTQVTVSS	high polyreactivity
QVQLVESGGGLVQAGGSLRLSCAASGSTFGLYAMGWYRQAPGKERELVAAISYSGSSTYYADSVKGRFTISRDNAKNTVYLQMNSLKPEATAVYYCAARRSEHGYNYWGQGTQVSVSS	high polyreactivity
QVQLVESGGGLVQAGGSLRLSCAASGSTFGNAMGWYRQAPGKERELVAAISGSGSDTYYADSVKGRFTISRDNAKNTVYLQMNSLKPEDTAVYYCNTGWDPYGYDYWGQGTQVTVSS	low polyreactivity
QVQLVESGGGLVQAGGSLRLSCAASGSTFGPNAMGWYRQAPGKERELVAAIRSNGGRTYYADSVKGRFTISRDNAKNSVYLQMNSLKPEDTAVYYCAAPHYPYDTPYGYWGQGTQVTVSS	low polyreactivity
QVQLVESGGGLVQAGGSLRLSCAASGSTFGPYAMGWYRQAPGKERELVAAIRSDGGTYYADSVKGRFTISRDNAKNTVYLQMNSLKPEDTAVYYCNAVRGAAWRCYNSWQTYPRDYWGQGTQVTVSS	high polyreactivity
QVQLVESGGGLVQAGGSLRLSCAASGSTFGPYAMGWYRQAPGKERELVAAISRGGSTYYADSVKGRFTISRDNAKNTVYLQMNSLKPEDTAVYYCAARYVRVGYDYWGQGTQVTVSS	high polyreactivity
QVQLVESGGGLVQAGGSLRLSCAASGSTFGPYAMGWYRQAPGKERELVATITRNGGSTYYADSVKGRFTISRDNAKNTVYLQMNSLKPEDTAVYYCNAEGRWSSFTQRMDYWGQGTQVTVSW	low polyreactivity
QVQLVESGGGLVQAGGSLRLSCAASGSTFGPYDMGWYRQAPGQERDLVAAITRSGGRTYYADSVKGRFTFSRDNAKNTVYLQKNSLKPEDTAVYYCAAPPSEATSQRYKYNYWGQGTQVTVSS	high polyreactivity
QVQLVESGGGLVQAGGSLRLSCAASGSTFGPYVMGWYRQAPGKERELVAAISRIGGRTYYADSVKGRFTISRDNAKNTVYLQMNSLKPEDTAVYYCAAKVGLYGDDYWGQGTQVTVSS	high polyreactivity
QVQLVESGGGLVQAGGSLRLSCAASGSTFGRNALGWYRQAPGKERELVASISWGGGSTYYADSVKGRFTISRDNAKNTVYLQMNSLKPEDTAVYYSNARRFLWSQLSGSFSYDYWGQGTQVTVSS	high polyreactivity
QVQLVESGGGLVQAGGSLRLSCAASGSTFGRNAMGWYRQAPGKERELVAAITASGGTTYYADSVKGRFTISRDNAMNTVYLQMNSLKPEDTAVYYCARAGHFSFKYDYWGQGTQVTVSS	low polyreactivity
QVQLVESGGGLVQAGGSLRLSCAASGSTFGRNAMGWYRQAPGNERELVAAISKRGGSTYYADSVKGRFTISRDNAKNTVYLQMNSLKPEDTAVYYCAKDVEGLGRRYRWYNYWGQGTQVTVSS	high polyreactivity
QVQLVESGGGLVQAGGSLRLSCAASGSTFGRYAKGWYRQAPGKERQLVAAISSSGVTTYYADSVKGRFTISRDNAKNSVYLQINSLKPEDTAVYYCSQTYKYHRWITKYGYWGQGTQVTVSS	high polyreactivity
QVQLVESGGGLVQAGGSLRLSCAASGSTFGRYAMGWYRQAPGKERELVAAISRGTTTNYADSVKGRFTIARDNAKNTVYLQMNSLKPEDTAVYYCAADQPSKRYYSWGQGTQVTVSS	low polyreactivity
QVQLVESGGGLVQAGGSLRLSCAASGSTFGRYAMGWYRQAPGKERELVAAISRGTTTNYADSVKGRFTISRDNAKNTVYLQMNILKPEDTAVYYCAAQTDSVESDYWGQGTQVTVSS	low polyreactivity
QVQLVESGGGLVQAGGSLRLSCAASGSTFGRYAMGWYRQAPGKERELVAAISRRGASTYYADSVKGRFTISRDNAKNTVYLQMNSLKPEDTAVYYCATGYPIDLGREFDYWGQGIQVTVSS	high polyreactivity
QVQLVESGGGLVQAGGSLRLSCAASGSTFGRYVMGRYRPAPGKERELVAAISGSGGSTYYADSVKGRFTISRDNAKNTVYLQMNSLKPEDTAVYYCAARVAHYEYYWGQGTQVTVSS	high polyreactivity
QVQLVESGGGLVQAGGSLRLSCAASGSTFGSNAMGWYREAPGKERELVAAIDANGGSTYYADSVKGRFTISRDNAKNTVYLQMNSLKPEDTAVYYCAAAGYWYYYVPNDYWGQGTQVTVSS	low polyreactivity
QVQLVESGGGLVQAGGSLRLSCAASGSTFGSNAMGWYRQAPGKEREFVAAISRRGGSTYYADSVKGRFTISRDNAKNTVYLQMNSLKPEDTAVYYCAADYISLREEDYWGQGTQVTVSS	high polyreactivity
QVQLVESGGGLVQAGGSLRLSCAASGSTFGSNAMGWYRQAPGKERELVAAIRGIVGSTYYADSVKGRFTISRDNAKNTVYLQMNSLKPEDTAVYYCNKAEVSTYYQTRSTYGGYDYWGQGTQVTVSS	low polyreactivity

Sequence	polyreactivity (PSR sort gate)
QVQLVESGGGLVQAGGSLRLSCAASGSTFGSNAMGWYRQAPGKERELVAAISWTGGSTYYADSVKGRFTISRDNAKYTVYLQMKSLKPEDTAVYYCNAYGYGYPLYRYDYWGQGTQVTVSS	low polyreactivity
QVQLVESGGGLVQAGGSLRLSCAASGSTFGSNAMGWYRQEPGKERELVAAITGGGTTSYADSVKGRFTISRDNAKNTVYLQMNSLKPEDTAVYYCNVLFADKSDYWGQGTQVTVSS	low polyreactivity
QVQLVESGGGLVQAGGSLRLSCAASGSTFGSYAMGWYRQAPGKERELVAAISGGGSTYYADSVKGRFTISRDNAKNTVYLQMNSLKPEDTAVYYCNAYWKYWRTNGPGTKYNYWGQGTQVTVSS	high polyreactivity
QVQLVESGGGLVQAGGSLRLSCAASGSTFGSYAMGWYRQAPGKERELVAAISTRGGRTRYADSVKVRFTISRDNAKNTVYLQMNSLKPQDTAVDYCATRIGSRVYNVSGYYRKDDYWGQGTQVTVSS	high polyreactivity
QVQLVESGGGLVQAGGSLRLSCAASGSTFGSYAMRWYRQAPGKERELVAAITASGGSTYYADSVKGRFTISRDNAKNTVYLQMNSLKPEDTAVYYCAADTTYIPLSIEYDYWGQGTQVTVSS	low polyreactivity
QVQLVESGGGLVQAGGSLRLSCAASGSTFGSYAMVWYRQAPGKERELVADISSRGASTYYADSVKGRFTISRDNAKNTVYLQMNRLKPEDTAVYYCARDVYIWYGYGYFPEYEYWGQGTQVTVSS	low polyreactivity
QVQLVESGGGLVQAGGSLRLSCAASGSTFGSYGMGWYRQAPGKERELVAVITYSGDRTYYADSVKGRFTISRDNAKNTVYLQMNSLKPEDTAVYYCAADRSYRVSEYDYWGQGTQVTVSS	low polyreactivity
QVQLVESGGGLVQAGGSLRLSCAASGSTFGSYTKGWSRPAPGQERELVAAINWSGGNTYYADSVKGRFTISRDNAKNTVYLQMTSLKREDTAVYYCAAAFYIYGVEGDYWGQGTQVTVSS	low polyreactivity
QVQLVESGGGLVQAGGSLRLSCAASGSTFGSYTMGWYRQAPGKEREFVAAIRWIGGSTYYADSVKGRFTISRDNAKNTVYLQMNSLKPEDTAVYYCNAKRRKHGYYYWGQGTQVTVSS	high polyreactivity
QVQLVESGGGLVQAGGSLRLSCAASGSTFGTNAMGWYRQAPGKERELVAAITRGGNTYYADSVKGRFTISRDNAKNTVYLQMNSLKTEDTAVYYCNTYTRASRFDYWGQGTQVTVSS	high polyreactivity
QVQLVESGGGLVQAGGSLRLSCAASGSTFGTYAMGCYRQAPGKARELVAAISGRGTSTYYADSVKGRFTISRDNAKITVYLQMNSLKPEDTAVYYCNAVFWSRSSHFDYWGQGTQVTVSS	high polyreactivity
QVQLVESGGGLVQAGGSLRLSCAASGSTFGTYAMGWYRQAPGKERELVAAISSGDSTTYADSVKGRFTISRDNAKNTVYLQMNSLKPEDTAVYYCAARVPYKSDYWGQGTQVTVSS	low polyreactivity
QVQLVESGGGLVQAGGSLRLSCAASGSTFGTYAMGWYRQAPGKERELVAAISSGGSTYYADSVKGRFTISRDNAKNTVYLQMNSLKPEDTAVYYCAAGYYWYVWGFGYWGQGTQVSVSS	low polyreactivity
QVQLVESGGGLVQAGGSLRLSCAASGSTFGTYAMGWYRQAPGKERELVAAISYRGGSTYYADSVKGRFTISRDNAKNTVYLQMNSLKPEDTAVYYCATRKYAATGYDYWGQGTQVTVSS	high polyreactivity
QVQLVESGGGLVQAGGSLRLSCAASGSTFGTYAMGWYRQAPGKERELVAVISWSDGRTYYADSVKGRFTISRDNAKNTVYLQMISLKPEDTAVYYCNARLDTFVPRYGYWGQGTQVTVSS	high polyreactivity
QVQLVESGGGLVQAGGSLRLSCAASGSTFGVNAMGWYRPAPGKERELVAAISRSGTSTYYADSVKGRFTISRDNAKNTVYLLMNSLKPEDTAVYYCAAQYFSGYHKYGYWGQGTQVTVSS	high polyreactivity
QVQLVESGGGLVQAGGSLRLSCAASGSTFGVNAMGWYRQAPGKEREFVAAITSSSGSTYYADSVKGRFTISRDNAKNTVYLQMNSLKPEDTAVYYCNKRYIQLYDYWGQGTQVTVSS	low polyreactivity
QVQLVESGGGLVQAGGSLRLSCAASGSTFGVYAMGWYRQAPGKERELVAAINYSGRTYYADSVKGRFTISRDNAKNTVYLQMNSLKPEDTAVYYCAADWYWSRHEYEYWGQGTQVTVSS	high polyreactivity
QVQLVESGGGLVQAGGSLRLSCAASGSTFGWYAMGWYREAPGKERELVAAISWLGTSTYYADSVKGRFTISRDNAKNTVYLQLNSLKPEDTAVYFCAADAYDVYYAYYYWGQGTQVTVSS	high polyreactivity
QVQLVESGGGLVQAGGSLRLSCAASGSTFGWYAMGWYRQAPGKESELVAAIRTSGGDSTYYADSVKGRFTISRDNAKNTVYLQMNSLKPEDTAVYYCAKTVWWYYRYPFDYWGQGTQGTVSS	low polyreactivity
